Measurements reported in patent US20050143285A1.
Where “and” joins values, the source holds several entries; their conditions need not be identical. Identical values can stand only once. Like-named read-outs stand apart in the source and are kept apart here.

B1: α-bungarotoxin, P60615 22-95 (peptide)
chain: IVCHTTATSPISAVTCPPGENLCYRKMWCDAFCSSRGKVVELGCAATCPSKKPYEEVTCCSTDKCNPHPKQRPG
modifications: not checked
B2: α-Cobratoxin, P01391 1-71 (peptide)
chain: IRCFITPDITSKDCPNGHVCYTKTWCDAFCSIRGKRVDLGCAATCPTVKTGVDIQCCSTDNCNPFPTRKRP
modifications: not checked

Experiments:
[1] = target: T1, Lymnaea stagnalis acetylcholine binding protein (AChBP) (Lymnaea stagnalis), P58154
T1 sequence (P58154 20-229): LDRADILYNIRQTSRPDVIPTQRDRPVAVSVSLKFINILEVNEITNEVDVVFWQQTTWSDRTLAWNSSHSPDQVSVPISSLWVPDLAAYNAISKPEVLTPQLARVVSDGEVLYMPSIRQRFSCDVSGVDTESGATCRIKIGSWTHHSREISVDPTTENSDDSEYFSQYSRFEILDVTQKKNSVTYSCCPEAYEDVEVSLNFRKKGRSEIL

[2] = target: T1, Lymnaea stagnalis acetylcholine binding …; remark: listed apart in the source
[3] = target: T1, Lymnaea stagnalis acetylcholine binding …; remark: listed apart in the source
[4] = target: T2, Aplysia californica acetylcholine binding protein (AChBP) (Aplysia californica)
T2 chain: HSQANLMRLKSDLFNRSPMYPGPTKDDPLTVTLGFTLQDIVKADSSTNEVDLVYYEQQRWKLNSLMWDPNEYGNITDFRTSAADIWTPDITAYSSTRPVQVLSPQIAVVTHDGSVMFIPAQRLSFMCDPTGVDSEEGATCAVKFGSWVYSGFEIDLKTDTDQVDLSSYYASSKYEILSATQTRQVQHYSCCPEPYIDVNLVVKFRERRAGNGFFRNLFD

[5] = target: T1, Lymnaea stagnalis acetylcholine binding …; assay: ratio of Kd on Lymnaea AChBP to Kd on Aplysia AChBP
[6] = target: T1, Lymnaea stagnalis acetylcholine binding …; assay: stopped-flow fluorescence; Kd calculated from k-1/k1
[7] = target: T1, Lymnaea stagnalis acetylcholine binding …; assay: stopped-flow spectrofluorimetry, excitation 280 nm, emission above 305 nm
[8] = target: T1, Lymnaea stagnalis acetylcholine binding …; assay: stopped-flow, intrinsic tryptophan fluorescence quenching of Lymnaea AChBP
[9] = target: T1, Lymnaea stagnalis acetylcholine binding …; assay: equilibrium titration, intrinsic tryptophan fluorescence of Lymnaea AChBP

Binder | Kd [1] | koff [2] | fold slower rate of association than epibatidine [3] | k2 (unimolecular step of association) [3] | fold lower affinity than for L-AChBP [4] | Kd Ratio L/A [5] | Kd [6] | kon [7] | koff [8] | kon [8] | percent quenching of the unliganded receptor fluorescence [9]
B1 | 1.8 nM | 0.001 s⁻¹ | 200 fold | 0.34 s⁻¹ | 100 fold | 0.0071 | 1.8 nM | 900000 M⁻¹ s⁻¹ | 0.0017 s⁻¹ | 970000 M⁻¹ s⁻¹ | 15% and 20%
B2 |  |  |  |  |  |  | 3.2 nM |  | 0.011 s⁻¹ | 3.3e+06 M⁻¹ s⁻¹ | 
GGKPDLRPCHPPCHYIPRPKPR (modifications not checked) [Waglerin-1, P24335 3-24] |  |  |  |  |  |  | 6500 nM |  | 31 s⁻¹ | 4.8e+06 M⁻¹ s⁻¹ | 
